This note sets out measurements from article PMC314469, “Protein Interaction Networks by Proteome Peptide Scanning” (PLoS Biology, 2004).

Assay [1] addresses T1, amphyphisin SH3 (AMPH_HUMAN), P49418.
T1 chain: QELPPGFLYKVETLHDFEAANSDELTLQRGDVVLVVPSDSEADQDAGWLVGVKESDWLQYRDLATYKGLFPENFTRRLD
Kind of assay: SPOT array.

The target of assay [2] is endophilin SH3 (SH3G2_HUMAN), Q99962. The assay can be described thus: SPOT array.

B1: Q9BZJ7 202-215 (peptide)
chain: AALRPPRPARGSRL
As for B1, the values for the normalised SPOT signal, Boehringer light units (BLU); mean over the file's lines of this peptide in assay [1] and in assay [2] were 17100 and 23700, respectively.

B2: Q96GI7 75-89 (peptide)
chain: AAALPAKPPNLDAA
Take B2: the normalised SPOT signal, Boehringer light units (BLU); mean over the file's lines of this peptide was 53.7 in assay [1] and 73 in assay [2].

B3: Q9H3Z7 68-81 (peptide)
chain: GGDALGRPPRGARS
As for B3, the results for the normalised SPOT signal, Boehringer light units (BLU); mean over the file's lines of this peptide in assay [1] and in assay [2] were 2160 and 741, respectively.

B4: O75866 29-42 (peptide)
chain: GHRPPGRPRRSPKA
On to B4, for which the normalised SPOT signal, Boehringer light units (BLU); mean over the file's lines of this peptide worked out at 1010 in assay [1] and 172 in assay [2].

B5: Q9UQ05 736-749 (peptide)
chain: GGPRPRRPLLLPNL
In the case of B5, the figures for the normalised SPOT signal, Boehringer light units (BLU); mean over the file's lines of this peptide in assay [1] and in assay [2] were 40.5 and 2950, respectively.

B6: P52926 41-54 (peptide)
chain: GEPSPKRPRGRPKG
Consider B6, for which the results for the normalised SPOT signal, Boehringer light units (BLU); mean over the file's lines of this peptide in assay [1] and in assay [2] were 23.6 and 59.1, respectively.

B7: Q14031 953-966 (peptide)
chain: GIPSPRRPMSNLWL
With B7, the normalised SPOT signal, Boehringer light units (BLU); mean over the file's lines of this peptide in assay [1] was found to be 76.5; in assay [2], 647.

B8: O43594 101-114 (peptide)
chain: GFPAPFRPSRKRSG
Turning to B8, the normalised SPOT signal, Boehringer light units (BLU); mean over the file's lines of this peptide in assay [1] came out at 9490; in assay [2] it was 10200.

B9: O43584 81-95 (peptide)
chain: GGFKPSRPPRPSRP
As to B9, the normalised SPOT signal, Boehringer light units (BLU); mean over the file's lines of this peptide in assay [1] amounted to 18100; in assay [2] it was 22700.

B10: Q96LK2 45-58 (peptide)
chain: GEQTFKRPAEDTLY
On to B10, for which the normalised SPOT signal, Boehringer light units (BLU); mean over the file's lines of this peptide was 15.2 in assay [1] and 15.9 in assay [2].

B11: Q9Y474 19-33 (peptide)
chain: GIKSPSKPPGPNRI
Turning to B11, the normalised SPOT signal, Boehringer light units (BLU); mean over the file's lines of this peptide in assay [1] amounted to 53.5; in assay [2], 7270.

B12: Q9UM81 410-423 (peptide)
chain: GEQAPARPPRNVQA
As for B12, the figures for the normalised SPOT signal, Boehringer light units (BLU); mean over the file's lines of this peptide in assay [1] and in assay [2] were 3470 and 527, respectively.

B13: Q96BH5 55-68 (peptide)
chain: AKREPRRPSWSPRL
For the molecule B13, the normalised SPOT signal, Boehringer light units (BLU); mean over the file's lines of this peptide in assay [1] amounted to 47.1; in assay [2] it was 195.

B14: Q99973 387-400 (peptide)
chain: AKRHPRRPPRSPGM
Regarding B14, the values for the normalised SPOT signal, Boehringer light units (BLU); mean over the file's lines of this peptide in assay [1] and in assay [2] were 1220 and 141, respectively.

B15: Q15427 329-343 (peptide)
chain: GGQPPPRPPPGMPH
In the case of B15, the figures for the normalised SPOT signal, Boehringer light units (BLU); mean over the file's lines of this peptide in assay [1] and in assay [2] were 43.1 and 536, respectively.

B16: Q00056 105-119 (peptide)
chain: GGASPGRPPQPEQP
For B16, the normalised SPOT signal, Boehringer light units (BLU); mean over the file's lines of this peptide in assay [1] came to 38.2; in assay [2] it was 845.

B17: P13385 32-45 (peptide)
chain: GHQEFARPSRGYLA
Consider B17, for which the normalised SPOT signal, Boehringer light units (BLU); mean over the file's lines of this peptide was determined as 2370 in assay [1] and 214 in assay [2].

B18: Q9P2B8 1668-1681 (peptide)
chain: GIPPPKRPLKVSQK
Consider B18, for which the normalised SPOT signal, Boehringer light units (BLU); mean over the file's lines of this peptide turned out to be 116 in assay [1] and 687 in assay [2].

B19: P40222 168-181 (peptide)
chain: GINAFARPSKMPYV
For the molecule B19, the normalised SPOT signal, Boehringer light units (BLU); mean over the file's lines of this peptide in assay [1] stood at 105; in assay [2], 96.7.

B20: O00456 566-579 (peptide)
chain: GHRDPRRPRPAQLP
B20: the normalised SPOT signal, Boehringer light units (BLU); mean over the file's lines of this peptide amounted to 12.9 in assay [1] and 418 in assay [2].

B21: Q92622 499-512 (peptide)
chain: GEGMFRRPSEGQSL
As to B21, the normalised SPOT signal, Boehringer light units (BLU); mean over the file's lines of this peptide in assay [1] was found to be 43.2; in assay [2], 68.7.

B22: O43823 235-249 (peptide)
chain: GGPSPSRPPPSLFS
Turning to B22, the normalised SPOT signal, Boehringer light units (BLU); mean over the file's lines of this peptide came to 93.5 in assay [1] and 1350 in assay [2].

B23: O94836 58-71 (peptide)
chain: GGRTPRRPGLQSGG
In the case of B23, the normalised SPOT signal, Boehringer light units (BLU); mean over the file's lines of this peptide in assay [1] amounted to 28; in assay [2], 72.8.

B24: P18206 866-880 (peptide)
chain: GEVPPPRPPPPEEK
Take B24: the results for the normalised SPOT signal, Boehringer light units (BLU); mean over the file's lines of this peptide in assay [1] and in assay [2] were 45.2 and 1140, respectively.

B25: Q14349 378-391 (peptide)
chain: GHGEPRRPPSDPLA
Turning to B25, the results for the normalised SPOT signal, Boehringer light units (BLU); mean over the file's lines of this peptide in assay [1] and in assay [2] were 20.6 and 65.1, respectively.

B26: Q9H7M7 1141-1154 (peptide)
chain: GGVRLRRPSVNGEP
As for B26, the values for the normalised SPOT signal, Boehringer light units (BLU); mean over the file's lines of this peptide in assay [1] and in assay [2] were 35.8 and 36, respectively.

B27: O43525 89-102 (peptide)
chain: AKTPLSRPVKRNNA
For the molecule B27, the normalised SPOT signal, Boehringer light units (BLU); mean over the file's lines of this peptide in assay [1] is 52.6; in assay [2], 149.

B28: O95359 373-386 (peptide)
chain: AKMPLRRPKMKKTP
With B28, the normalised SPOT signal, Boehringer light units (BLU); mean over the file's lines of this peptide in assay [1] was determined as 34.8; in assay [2] it was 200.

B29: Q9H5X0 195-208 (peptide)
chain: GFGVLRRPRPTPGD
Regarding B29, the values for the normalised SPOT signal, Boehringer light units (BLU); mean over the file's lines of this peptide in assay [1] and in assay [2] were 38.4 and 74.2, respectively.

B30: O75145 4-17 (peptide)
chain: GEGGPQRPSRSQRR
Take B30: the values for the normalised SPOT signal, Boehringer light units (BLU); mean over the file's lines of this peptide in assay [1] and in assay [2] were 9950 and 1590, respectively.

B31: P51864 32-45 (peptide)
chain: GHQEFARPSRGDLA
As to B31, the normalised SPOT signal, Boehringer light units (BLU); mean over the file's lines of this peptide in assay [1] was 1570; in assay [2], 52.8.

B32: Q9H6I2 64-77 (peptide)
chain: GESRIRRPMNAFMV
As for B32, the normalised SPOT signal, Boehringer light units (BLU); mean over the file's lines of this peptide worked out at 46.4 in assay [1] and 138 in assay [2].

B33: O95153 1407-1421 (peptide)
chain: GGGSPEKPPSRRRP
As to B33, the normalised SPOT signal, Boehringer light units (BLU); mean over the file's lines of this peptide in assay [1] is 811; in assay [2], 499.

B34: Q9HBQ2 154-168 (peptide)
chain: GHTLPPKPPSPRGT
On to B34, for which the normalised SPOT signal, Boehringer light units (BLU); mean over the file's lines of this peptide in assay [1] stood at 577; in assay [2] it was 4690.

B35: Q9HCE9 771-784 (peptide)
chain: GGHGPERPKRPGSL
On to B35, for which the normalised SPOT signal, Boehringer light units (BLU); mean over the file's lines of this peptide came to 7740 in assay [1] and 1320 in assay [2].

B36: Q13319 50-63 (peptide)
chain: GESRLKRPSVLISA
Consider B36, for which the normalised SPOT signal, Boehringer light units (BLU); mean over the file's lines of this peptide was 31.9 in assay [1] and 0 in assay [2].

B37: Q9ULP6 14-28 (peptide)
chain: GGFLPARPPRAQRH
Turning to B37, the normalised SPOT signal, Boehringer light units (BLU); mean over the file's lines of this peptide in assay [1] is 18500; in assay [2], 14800.

B38: Q9H013 877-891 (peptide)
chain: GGASPLRPPGAGPQ
As to B38, the normalised SPOT signal, Boehringer light units (BLU); mean over the file's lines of this peptide in assay [1] was determined as 63.9; in assay [2] it was 80.4.
